The values below come from patent US20220289791A1 (UNIVERSIT CATHOLIQUE DE LOUVAIN, published 2022).

*1 amine or outer side, *2 acyl side, *3 side chain or, on linkers, in order; H or OH if unused. Bridges are numbered along the chain shown (N, C = ends). Where no end group is shown, it is not given here. C6F4(1,4-diyl) = Fc1c(F)c([*:2])c(F)c(F)c1[*:1]

Series [1] deals with T1, LDH1, tetramer of full length human LDHB subunits (human, UniProt P07195 2-334).
T1 construct: Homotetramer; also called LDHBfl; full length LDHB
T1 sequence (P07195 2-334 limits assumed): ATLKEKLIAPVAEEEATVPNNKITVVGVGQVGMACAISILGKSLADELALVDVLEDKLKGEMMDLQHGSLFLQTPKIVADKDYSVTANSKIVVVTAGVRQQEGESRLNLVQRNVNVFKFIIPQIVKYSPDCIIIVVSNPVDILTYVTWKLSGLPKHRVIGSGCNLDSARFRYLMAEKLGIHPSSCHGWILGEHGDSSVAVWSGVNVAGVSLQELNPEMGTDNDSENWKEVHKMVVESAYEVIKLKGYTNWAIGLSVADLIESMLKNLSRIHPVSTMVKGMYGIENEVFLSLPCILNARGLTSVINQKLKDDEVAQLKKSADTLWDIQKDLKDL
In words: MST on tetrameric LDH1, 10 to 20 s on time.

Series [2] addresses T2, human LDH5, tetramer of human LDHA subunits (human, UniProt P00338 1-332). The series is described as follows: cell-based or functional assay.
Series [3] deals with T1, LDH1, tetramer of full length human …. The series is described as follows: cell-based or functional assay.
The target of series [4] is T2, human LDH5, tetramer of human LDHA …. In words: MST on tetrameric LDH5, Kd from red-dye raw fluorescence.
The target in series [5] is T1, LDH1, tetramer of full length human …. In words: biochemical and biophysical evaluation, not specified further.

B1: macrocyclic peptide MP7 (peptide)
peptide: CTLKCKLI-NH2
modifications: linker 1-5 via C6F4(1,4-diyl); N-terminus assumed
SMILES: CC[C@H](C)[C@H](NC(=O)[C@H](CC(C)C)NC(=O)[C@H](CCCCN)NC(=O)[C@@H]1CSc2c(F)c(F)c(c(F)c2F)SC[C@H](N)C(=O)N[C@@H]([C@@H](C)O)C(=O)N[C@@H](CC(C)C)C(=O)N[C@@H](CCCCN)C(=O)N1)C(N)=O
Broadly, the Kd is the equilibrium constant for the complex coming apart. A low value points to higher affinity. For B1, the equilibrium dissociation constant (Kd) in series [1] was around 380 µM; in series [4], around 117 µM. Also, the “ΔTm, thermal denaturation by nanoDSF, 400 µM MP7” value in series [2] was -5 ° C; in series [3], -1.5 ° C. Moreover, the “EC50 of disruption of the tetrameric state (normalised 350 nm intrinsic fluorescence)” value in series [3] came to 172 µM.
Turning to ATLKEKLIAPVAEEEATVP-NH2 [LB19, LDHB 19 N-terminal amino acid peptide], the binding result in series [5] is listed as “no binding”.
